Results on four substances are retold here after patent publication US6406886.

Data set [1] deals with Ran. Nature of the data set: cell-based or functional assay.
In data set [2] the target is yeast Rsr1 (1st to 272nd residues) (UniProt P13856).
The target in data set [3] is human Rap1A (Glu63) (1st to 184th residues) (UniProt P62834).
For data set [4], the target named is human Ha-Ras (1st to 189th residues) (UniProt P01112).
For data set [5], the target named is human RhoA (1st to 193 residues) GST fusion protein (UniProt P61586).
Sequence of human RhoA (1st to 193 residues) GST fusion protein (P61586 whole entry, the tested form may be a part): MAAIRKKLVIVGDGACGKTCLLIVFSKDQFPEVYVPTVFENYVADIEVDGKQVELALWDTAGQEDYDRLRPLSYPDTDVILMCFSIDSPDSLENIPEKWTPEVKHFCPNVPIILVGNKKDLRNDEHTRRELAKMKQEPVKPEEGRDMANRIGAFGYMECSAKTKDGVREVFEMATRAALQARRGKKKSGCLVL

Sequence of fusion protein of human GAP3 (75th to 663rd amino acid residues) and GST (chain, as listed by the source): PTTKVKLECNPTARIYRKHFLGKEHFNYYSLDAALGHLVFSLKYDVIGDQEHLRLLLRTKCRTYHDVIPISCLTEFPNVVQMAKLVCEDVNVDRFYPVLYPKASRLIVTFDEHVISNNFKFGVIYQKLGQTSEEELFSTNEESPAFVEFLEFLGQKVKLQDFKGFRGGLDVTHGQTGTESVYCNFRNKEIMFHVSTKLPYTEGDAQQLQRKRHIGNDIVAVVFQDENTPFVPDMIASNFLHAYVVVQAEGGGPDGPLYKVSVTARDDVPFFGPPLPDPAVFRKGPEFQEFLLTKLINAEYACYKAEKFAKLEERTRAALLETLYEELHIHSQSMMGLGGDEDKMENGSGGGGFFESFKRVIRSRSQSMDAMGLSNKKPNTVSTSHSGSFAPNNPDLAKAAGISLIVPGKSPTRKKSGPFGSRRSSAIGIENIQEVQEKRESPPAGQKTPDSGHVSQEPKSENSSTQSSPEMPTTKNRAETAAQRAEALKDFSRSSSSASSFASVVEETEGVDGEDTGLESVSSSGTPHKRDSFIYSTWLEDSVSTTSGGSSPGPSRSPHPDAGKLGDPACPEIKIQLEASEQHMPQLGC
Sequence of human Rap1A (Glu63) (1st to 184th residues) (P62834 whole entry, looked up): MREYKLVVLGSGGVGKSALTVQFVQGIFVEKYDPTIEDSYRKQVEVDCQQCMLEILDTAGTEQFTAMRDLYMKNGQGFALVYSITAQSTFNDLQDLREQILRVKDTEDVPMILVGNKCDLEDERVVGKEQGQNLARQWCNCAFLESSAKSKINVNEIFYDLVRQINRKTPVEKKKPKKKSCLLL
Sequence of yeast Rsr1 (1st to 272nd residues) (P13856 whole entry): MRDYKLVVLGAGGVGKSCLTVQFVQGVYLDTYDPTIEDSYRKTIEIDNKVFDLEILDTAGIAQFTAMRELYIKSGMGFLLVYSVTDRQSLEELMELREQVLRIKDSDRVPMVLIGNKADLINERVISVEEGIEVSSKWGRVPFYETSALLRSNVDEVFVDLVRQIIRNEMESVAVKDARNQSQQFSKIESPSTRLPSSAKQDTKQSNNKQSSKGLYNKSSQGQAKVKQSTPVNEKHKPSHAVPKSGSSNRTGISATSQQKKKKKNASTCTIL
Sequence of human Ha-Ras (1st to 189th residues) (P01112 whole entry, looked up, the tested form may be a part): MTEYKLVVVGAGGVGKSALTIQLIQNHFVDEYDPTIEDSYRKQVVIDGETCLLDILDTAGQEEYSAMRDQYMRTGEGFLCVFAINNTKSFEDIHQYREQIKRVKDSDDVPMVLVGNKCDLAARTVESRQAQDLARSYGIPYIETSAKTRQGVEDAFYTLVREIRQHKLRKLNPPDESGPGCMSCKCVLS

Consider NF1-GDR(Ras GAP) (enzyme), for which, in data set [1], the EC16 (µg/ml), activation of Ran GTPase came out at 300 µg/mL.
In the case of “fusion protein of human GAP3 (75th to 663rd amino acid residues) and GST”, the Stimulation (times) of GTPase activity in data set [2] was found to be 7 times; in data set [3], 10 times; in data set [4], 0 times; in data set [5], 0 times.
In the case of “fusion protein of human GAP3 (75th to 663rd amino acid residues) and GST (from UniProt P47736 75-663) (enzyme)”, the EC16 (µg/ml), activation of Ran GTPase in data set [1] amounted to 130 µg/mL.
Same read-out and setting: in the case of p190C(Rho GAP) (enzyme) it was 150 µg/mL.
